Measured values from US20250236673A1 (Ablynx, published 2025).

T1: recombinant human CEACAM5 (human, UniProt P06731 35-685, limits assumed)
T1 construct: Immobilised by amine coupling on a CM5 chip
T1 sequence (looked up): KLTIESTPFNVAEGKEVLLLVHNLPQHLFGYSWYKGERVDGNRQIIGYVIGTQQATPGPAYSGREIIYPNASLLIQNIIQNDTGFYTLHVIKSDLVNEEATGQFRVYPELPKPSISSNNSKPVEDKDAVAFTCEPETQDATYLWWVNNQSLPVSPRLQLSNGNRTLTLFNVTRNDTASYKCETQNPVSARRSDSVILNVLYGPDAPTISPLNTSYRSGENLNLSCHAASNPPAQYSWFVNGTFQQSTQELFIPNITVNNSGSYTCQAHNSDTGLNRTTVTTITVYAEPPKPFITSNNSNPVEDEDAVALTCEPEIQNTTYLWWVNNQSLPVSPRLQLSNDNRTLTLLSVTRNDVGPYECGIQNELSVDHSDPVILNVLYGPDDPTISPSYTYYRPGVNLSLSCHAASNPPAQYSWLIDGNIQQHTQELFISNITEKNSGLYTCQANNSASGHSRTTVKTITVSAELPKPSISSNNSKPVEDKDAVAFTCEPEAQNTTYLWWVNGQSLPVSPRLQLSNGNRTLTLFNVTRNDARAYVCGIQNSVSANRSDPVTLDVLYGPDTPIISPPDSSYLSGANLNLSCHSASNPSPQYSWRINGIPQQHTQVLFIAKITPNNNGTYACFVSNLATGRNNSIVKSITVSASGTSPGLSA


Key:
[1] = molecular target: T1, recombinant human CEACAM5; experiment: SPR on CEACAM5 (Example 2; same values as in Table 13)
[2] = molecular target: T1, recombinant human CEACAM5; experiment: SPR Biacore 8K+, CEACAM5 amine-coupled on CM5, ISVD analyte, 1:1 fit
[3] = molecular target: T2, human serum albumin (human, UniProt P02768 25-609); experiment: SPR Biacore 8K+, HSA amine-coupled on C1 chip, ISVD analyte, 1:1 fit
T2 construct: Immobilised by amine coupling on a C1 chip; also called HSA

[4] = molecular target: T2, human serum albumin; experiment: SPR on HSA (Example 2; same values as in Table 13)

T2 sequence (P02768 25-609 limits assumed): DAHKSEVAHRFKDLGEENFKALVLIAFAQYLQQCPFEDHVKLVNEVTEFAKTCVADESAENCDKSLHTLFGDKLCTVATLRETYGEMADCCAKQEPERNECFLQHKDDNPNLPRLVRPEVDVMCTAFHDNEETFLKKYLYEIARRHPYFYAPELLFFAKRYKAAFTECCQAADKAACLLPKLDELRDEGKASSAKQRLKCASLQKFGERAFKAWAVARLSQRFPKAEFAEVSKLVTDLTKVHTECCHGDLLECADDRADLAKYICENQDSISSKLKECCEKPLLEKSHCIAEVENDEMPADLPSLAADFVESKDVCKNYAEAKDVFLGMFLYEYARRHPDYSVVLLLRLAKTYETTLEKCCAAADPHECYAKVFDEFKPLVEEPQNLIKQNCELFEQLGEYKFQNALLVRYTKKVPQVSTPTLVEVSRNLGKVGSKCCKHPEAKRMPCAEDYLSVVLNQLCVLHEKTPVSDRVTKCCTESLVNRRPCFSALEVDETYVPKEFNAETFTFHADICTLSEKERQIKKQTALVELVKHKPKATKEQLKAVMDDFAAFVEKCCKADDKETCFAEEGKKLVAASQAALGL

Kd [1] [nM] | koff [1] [s⁻¹] | kon [1] [M⁻¹ s⁻¹] | Kd [2] [nM] | koff [2] [s⁻¹] | kon [2] [M⁻¹ s⁻¹] | Kd [3] [nM] | koff [3] [s⁻¹] | kon [3] [M⁻¹ s⁻¹] | Kd [4] [nM] | koff [4] [s⁻¹] | kon [4] [M⁻¹ s⁻¹] | Binder
1.24 | 0.000885 | 716000 | 1.24 | 0.000885 | 716000 |  |  |  |  |  |  | T028501789 (VHH, also called A031500384; A0315007E07(L11V, S76N, N82bS, E83R, V89L, H91Y, N101H)) VHH: EVQLVESGGGVVQPGGSLRLSCAASGLTFSTYTMGWFRQAPGKEREFVAAIIWSGSNTYYADSVKGRFTISRDNAKNTVYLQMNSLRPEDTALYYCAAQHFGPIGLTTRGYHYWGQGTLVTVSS
 |  |  |  |  |  | 1.28 | 0.000992 | 772000 | 1.28 | 0.000992 | 772000 | T028501805 (VHH, also called ALB00622; HSA006A06(K83R)) VHH: EVQLVESGGGVVQPGGSLRLSCAASGFTFRSFGMSWVRQAPGKGPEWVSSISGSGSDTLYADSVKGRFTISRDNSKNTLYLQMNSLRPEDTALYYCTIGGSLSRSSQGTLVTVSS
